According to patent US9340582B2, “Bioconjugates of synthetic apelin polypeptides” (NOVARTIS AG, priority 2013, dated 2016):
Bridge positions count the residues as written; N and C are the ends. Square brackets hold non-standard residues; d marks the D form. * marks the point of attachment. Propanoyl(3-maleimido) = O=C1C=CC(=O)N1CCC(=O)*; Nle = CCCC[C@H](N)C(=O)O; AEEA = NCCOCCOCC(=O)O

Key:
[1] = Surrogate activity-based plasma stability assay; details: for Surrogate activity-based Plasma stability t½: Table 2
hAPJ = target: T1, hAPJ (Homo sapiens, UniProt P35414); assay: hAPJ Calcium Flux Assay; type: cell-based; details: Chem-5 APJ stable cells, FLIPR calcium flux; read-out: hAPJ Ca^2+ Flux EC50
T1 sequence (P35414 1-380): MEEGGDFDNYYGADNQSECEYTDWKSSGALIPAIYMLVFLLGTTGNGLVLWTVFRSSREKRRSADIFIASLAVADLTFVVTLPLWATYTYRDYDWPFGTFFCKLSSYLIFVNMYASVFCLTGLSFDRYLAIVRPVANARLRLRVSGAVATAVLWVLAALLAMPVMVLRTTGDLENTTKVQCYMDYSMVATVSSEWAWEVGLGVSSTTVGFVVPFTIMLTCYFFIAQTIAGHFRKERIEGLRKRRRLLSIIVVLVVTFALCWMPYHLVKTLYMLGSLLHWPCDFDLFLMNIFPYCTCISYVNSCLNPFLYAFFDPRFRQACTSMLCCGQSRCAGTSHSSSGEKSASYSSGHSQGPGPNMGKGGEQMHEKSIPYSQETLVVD
Experimental: Chem-5 APJ stable cells (Millipore #HTS068C) were plated in 384-well format with 10,000 cells/well in 25 ul growth media, then grown 24 hours in a 37° C. tissue culture incubator. One hour before the assay, 25 ul/well FLIPR Calcium 4 dye (Molecular Devices R8142) with 2.5 mM probenecid was added, and cells were incubated one hour in a 37° C. tissue culture incubator. Bioconjugates were solubilized in HBSS, HEPES & 0.1% BSA buffer, and serially-diluted 10-fold, from 50 uM to 5 pM, in triplicate. FLIPR Tetra was used to add bioconjugates to the cells with dye (1:5, for final bioconjugate concentrations ranging from 10 uM to 1 pM). FLIPR dye inside the cells emitted fluorescence after binding to calcium, while fluorescence from outside the cells was masked. […] Readings were done for 3 minutes total, beginning 10 seconds before the bioconjugate addition. Maximum-minimum values were calculated and plotted for each bioconjugate concentration, and GraphPad prism software was used to calculate EC50 values at the curve inflection points, for calcium flux stimulation by bioconjugates.

[2] = Plasma Stability Assay (LC-MS); type: in vitro ADME; details: Table 3, rat plasma, 37° C.
Experimental: • Materials: • Working solution: 1 mg/mL test article is prepared in Milli-Q water • Extraction solution: Methanol:Acetonitrile:Water (1:1:1) with 0.1% Formic Acid and 400 ng/mL Glyburide. • Plasma: Male Sprague-Dawley rat plasma (with sodium heparin), purchased from Bioreclamation LLC (Liverpool, N.Y.). • Whole blood: Male Sprague Dawley whole blood (with sodium heparin), purchased from Bioreclamation LLC (Liverpool, N.Y.) • Lung homogenate: Male rat Sprague Dawley lung was purchased from Bioreclamation LLC (Liverpool, N.Y.). The lung was homogenized using polytron homogenizer after addition of 5× volume of 1×PBS. The homogenate was centrifuged at 9000 rpm for 10 min at 4° C. The supernatant was centrifuged again at 3000 rpm for 30 min to make a clear supernatant. Protein concentration was determined using a commercial kit (Pierce, Thermo Scientific). Sample Preparation Procedure: (peptides)
Test article was prepared in one of the following biological matrices: heparinized rat plasma, heparinized rat whole blood or lung homogenate. The plasma and whole blood sample was prepared at 5000 ng/mL by adding 5 uL of 1 mg/mL Working solution to 995 uL of rat plasma or whole blood. […]

## Example 4: Fc-Apelin fusion SEQ ID NO: 98; linker GGGGSGGGGS, polypeptide QRPRLSHKGPMPF
[1]
  Surrogate activity-based Plasma stability t½: 3.53 h

## Albumin-MPA-O2Oc-O2Oc-O2Oc-O2Oc-Q-R-P-R-L-C*-H-F-G-P-Nle-C*-f-OH [Example 1]
[1]
  Surrogate activity-based Plasma stability t½: >16.67 h

## Albumin-MPA-NHCH2CH2CH2−OCH2CH2OCH2CH2O-CH2CH2CH2NH-C(O)CH2CH2C═O-A-R-P-R-L-S-H-K-G-P-Nle-P-F-OH (ARPRLSHKGPLPF; albumin-MPA linker conjugate; Nle residue) [Example 3]
hAPJ
  EC50: 52 nM
[1]
  Surrogate activity-based Plasma stability t½: 0.405 h

## Albumin-TPA-O2Oc-O2Oc-O2Oc-O2Oc-Q-R-P-R-L-C*-H-F-G-P-Nle-C*-f-OH [Example 2]
hAPJ
  EC50: 92.4 nM
[2]
  Plasma stability t½: ~24 h
[1]
  Surrogate activity-based Plasma stability t½: >16.67 h
[1]; Table 3
  Surrogate Activity based Plasma stability t½: >16.67 h

## Example 5: Fc-Apelin fusion SEQ ID NO: 99; linker GGGGSGGGGSGGGGS, polypeptide QRPRLSHKGPMPF
[1]
  Surrogate activity-based Plasma stability t½: 5.57 h

## Albumin-MPA-O2Oc-O2Oc-O2Oc-O2Oc-Q-R-P-R-L-C*-H-F-G-P-Nle-C*-f-OH ({albumin-Propanoyl(3-maleimido)}-[AEEA][AEEA][AEEA][AEEA]QRPRLCHFGP[Nle]C[dF]-OH; disulfide 10-16; also: albumin conjugate) [Example 1]
hAPJ
  EC50: 47.2 nM
